{"source": "paper PMC10583366", "about": "“OsCBL1 modulates rice nitrogen use efficiency via negative regulation of OsNRT2.2 by OsCCA1”", "binders": {"B1": {"name": "P8 (dsDNA)", "DNA 1": "CTTCAGGCCGTCATGAAAAAAAACCAGTGCATATCTCATGGCAAGAAGAAGTGCAGGTTGTGAA", "DNA 2": "TTCACAACCTGCACTTCTTCTTGCCATGAGATATGCACTGGTTTTTTTTCATGACGGCCTGAAG"}, "B2": {"name": "P6 (dsDNA)", "DNA 1": "TAAAAAATACCTGCAGGTGCTCTAGTTCAACTGAAGGGCCAGATTTAGCAATATCTGAGTCCTTCAAATAAATTCATCAACTAACAAACTTCAACCGAAG", "DNA 2": "CTTCGGTTGAAGTTTGTTAGTTGATGAATTTATTTGAAGGACTCAGATATTGCTAAATCTGGCCCTTCAGTTGAACTAGAGCACCTGCAGGTATTTTTTA"}, "B3": {"name": "P7 (dsDNA)", "DNA 1": "ATATGATGTGTATGGGAATTGGGATGCTGAAAACAAATGCAACTGGACACATATCTGCAACTTGTAAATAACTTTTATTTCTTTTAATGGAAAAAATGTG", "DNA 2": "CACATTTTTTCCATTAAAAGAAATAAAAGTTATTTACAAGTTGCAGATATGTGTCCAGTTGCATTTGTTTTCAGCATCCCAATTCCCATACACATCATAT"}}, "data": [{"molecular_target": "OsCCA1 (His-OsCCA1; Nhd1) (Oryza sativa, UniProt A0A0P0XBU0 1-719)", "sequence (A0A0P0XBU0 whole entry)": "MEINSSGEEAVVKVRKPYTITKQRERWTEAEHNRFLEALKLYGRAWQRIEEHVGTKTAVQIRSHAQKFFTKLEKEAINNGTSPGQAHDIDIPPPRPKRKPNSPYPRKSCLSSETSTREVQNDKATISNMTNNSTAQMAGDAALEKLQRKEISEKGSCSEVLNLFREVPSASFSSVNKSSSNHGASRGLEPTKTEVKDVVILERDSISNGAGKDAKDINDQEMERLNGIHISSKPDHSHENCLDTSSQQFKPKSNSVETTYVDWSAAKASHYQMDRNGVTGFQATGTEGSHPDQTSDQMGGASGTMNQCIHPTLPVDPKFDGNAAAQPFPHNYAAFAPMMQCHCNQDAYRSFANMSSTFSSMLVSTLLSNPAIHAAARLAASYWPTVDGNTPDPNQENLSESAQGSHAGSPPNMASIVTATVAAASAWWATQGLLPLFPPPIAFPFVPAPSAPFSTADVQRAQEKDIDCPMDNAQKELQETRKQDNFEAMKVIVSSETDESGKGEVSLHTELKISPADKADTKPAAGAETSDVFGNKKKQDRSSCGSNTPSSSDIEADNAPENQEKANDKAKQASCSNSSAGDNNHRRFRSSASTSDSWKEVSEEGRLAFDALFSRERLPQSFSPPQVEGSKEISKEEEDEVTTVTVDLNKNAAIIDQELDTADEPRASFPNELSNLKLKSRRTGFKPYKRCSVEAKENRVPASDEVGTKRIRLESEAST", "test": "EMSA; 10 mM Tris-HCl pH 7.5, 50 mM KCl, 1 mM DTT, 4 C, 40 min; 4% TBE-PAGE at 4 C, ethidium bromide stain", "conditions": "protein: recombinant; tags: His (pET-28a); ATATCT (motif)", "values": [{"binder": "B1", "binding result": "binds"}, {"binder": "B2", "binding result": "binds"}, {"binder": "B3", "binding result": "binds"}]}]}
